Test results reported in patent US20230068663A1 (University of Texas, published 2023).
Residue numbers refer to the chain shown, from its start.

B1: B2-11 (antibody, V domains shown)
VH: QVQLQQSGPGLVKPSQTLSLTCAISGDSVSSNSAAWNWIRQSPSRGLEWLGRTYYRSKWYNDYAVSVKSRITINPDTSKNQFSLQLNSVTPEDTAVYYCARQDESAADDAFDIWGQGTLVIVSS
VL: QSVLTQPPSASGTPGQRVTISCSGSKSNVGNNFVHWYQQLPGTAPKLLLYSNLERSSGVPERFSGSKSGTSAYLAISGLRSDDEADYYCAAWDDSLPGWVFGGGTKLTVL
notes: also called B2-11_HC; B2-11_LC
B2: B2-14 (antibody, V domains shown)
VH: QVQLVQSGAEVKKPGSSVKVSCKASGGTFSSYAISWVRQAPGQGLEWMGGIIPIFGTANYAQKFQGRVTITADESTSTAYMELSSLRSEDTAVYYCARASMVETYFDYWGQGTMVTVSS
VL: QSVLTQPRSVSGSPGQSVTISCTGTSSDVGGYNYVSWYQQHPGKAPKLMISEVSKRPSGVPDRFSGSKSGNTASLTVSGLQAEDEADYYCSSYAGGYTPYVFGTGTKVTVL
notes: also called B2-14_HC; B2-14_LC
B3: B2-3 (antibody, V domains shown)
VH: QVQLVQSGAEVKKPGASVKVSCRTSGYTFSSYGISWVRQAPGQGLEWMGWISGNTGNTKYTPKLQGRVTMTTDTSTSTAYMELRSLRSDDTAVYYCARDRGIAAGRAFDIWGQGTMVTVSS
VL: QPVLTQPPSASGTPGQRVTISCSGSSSNIGTNPVNWYQQVPGTGPKLLIYNNNQWPSGVPDRFSGSKSATSASLAIYGLQSGDEAHYYCSSWDDSLSAWVFGGGTKVTVL
notes: also called B2-3_HC; B2-3_LC
B4: B2-13 (antibody, V domains shown)
VH: B2 VH with A99S, S100D, M101Y, V102G, E103D, T104S, M114L, T116S
VL: QAVVTQPASVSGSPGQSVSISCTGTSSDVGGFNYVSWYQQHPGKAPKLMIYDVSNRPSGVSNRFSGSKSGNTASLTISGLQAEDEADYYCSSYTSSTAPYVFGTGTKVTVL
notes: also called B2-13_HC; B2-13_LC
B5: B2-27 (antibody, human IgG1, V domains shown)
VH: B2 VH with A99E, M101Y, V102S, E103S, T104S, Y105S, M114T, T116S
VL: B4 VL with A2P, V4L, V18I, S19T, F32Y, T72S, T97S, A98T
notes: also called B2-27_HC; B2-27_LC
B6: B2-2 (antibody, V domains shown)
VH: QVQLVQSGAEVKKPGASVKVSCKASGYTFSDYGFSWVRQAPGQGLEWMGWISGYNGNTNYAQKFQGRVTMTIDASTSTAYMELRSLKSDDTAVYYCARLLLGYYGMDVWGQGTTVTVSS
VL: DIVMTQSPSSLSASVGDRVTLTCRASQSIGNYLNWYQQKPGKAPNLLIYAASSLQSGVPSRFSGSGSGTDFTLTISSLQPEDFATYYCQQSFSIPPITFGQGTRLEIK
notes: also called B2-2_HC; B2-2_LC
B7: B2-4 (antibody, V domains shown)
VH: QVQLVQSGPTVRKPGASVRVSCKASGYPFTSNGMSWVRQAPGQGLEWMGWISTNSGNTNYAQKFQGRVTLTTDTSSTTTYLDLRSLTSDDTAIYYCARDVQYRMDVWGQGTTVTVSS
VL: QSVLTQPPSASGTPGQRVTISCSGSRSNIGSNPVNWYQHLPGTAPKLLVYSNNRRPSGVPDRFSGSKSGTSASLSISGLQSEDEGVYYCAAWDDNVHGVFGGGTKVTVL
notes: also called B2-4_HC; B2-4_LC
B8: B2-26 (antibody, V domains shown)
VH: QVQLVQSGAEVKKPGASVKVSCKASGYTFTSYGISWVRQAPGQGLEWMGWISAYNGNTNYAQKLQGRVTMTTDTSTSTAYMELRSLRSDDTAVYYCARDRGGWFDPWGQGTLVIVSS
VL: QSPSSLSASVGDRVTITCRASQSISNFVNWYQQKPGEVPKLLIYGASSLQSGVPSRFSGSGSGTDFTLTISSLQPEDFATYYCQQGYSVPLTFGGGTTVDIK
notes: also called B2-26_HC; B2-26_LC
B9: B2-23 (antibody, V domains shown)
VH: QVQLVQSGAEVKKPGASVKVSCKASGYTFTHSYIHWVRQAPGQGLEWMGVINPVGGSTTYAQRFQGRVTMTRDTSTSTVYMELSSLRSEDTAVYYCARAGGDGYNPYFDYWGQGTLVTVSS
VL: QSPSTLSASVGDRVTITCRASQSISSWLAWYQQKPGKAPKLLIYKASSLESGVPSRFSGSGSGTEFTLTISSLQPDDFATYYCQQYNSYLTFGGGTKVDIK
notes: also called B2-23_HC; B2-23_LC
B10: B2-9 (antibody, human IgG1, V domains shown)
VH: QVQLVQSGAEVKKPGASVKVSCKASGYTFTSYGISWVRQAPGQGLEWMGWISAYNGNTNYAQKLQGRVTMTTDTSTSTAYMELRSLRSDDTAVYYCARDGYGMDVWGQGTTVTVSS
VL: QSPSSLSASVGDRVTITCRTSHTVNSYLNWYQQEPGKAPKLLIYAASNLQSGVPSRFSGSGSGTDFSLTIHNLQPEDFATYYCQQSYRTPLTFGQGTKVDIK
notes: also called B2-9_HC; B2-9_LC
B11: B2-22 (antibody, V domains shown)
VH: B10 VH with D99V, Y101S, G102Y, M103G, V105Y, T111L
VL: QSPSSLSASVGDRVTITCRASQGISNYLAWYQQKPGKVPKLLIYAASTLQSGVPSRFSGSGSGTDFTLTISSLQPEDVATYYCQKYNSAPLTFGGGTKLEIK
notes: also called B2-22_HC; B2-22_LC
B12: B2-30 (antibody, human IgG1, V domains shown)
VH: QVQLVESGGGLVQPGGSLRLSCAASGFTFSSYDMHWVRQATGKGLEWVSAIGTAGDTYYPGSVKGRFTISRENAKNSLYLQMNSLRAGDTAVYYCARAKEYCSGGSCQDAFDIWGQGTMVSVSS
VL: QSPSSLSASVGDRVTITCRASQSIRTYLNWYQQKPGKDPELLIYAATSLQSGVPSRFTGSGSGTDFTLTISSLQPEDFATYYCQQSYSAPVFTFGQGTKLEIK
notes: also called B2-30_HC; B2-30_LC
B13: HCB2-1c (antibody, V domains shown)
VH: EVQLVQSGAEVKKPGASVKVACKASGYTFTDYYIHWVRQAPGQGLEWMGIVNANGGDTNYAQQFQGRVTMTRDTSTSTVYLELTSLRSDDTAVYYCARDWYYYSSGSFPFDYWGQGTLVSVSS
VL: AIQMTQSPSSLSASVGDRVSITCRASQSISSFLNWYQQRPGKAPELLIYGASSLQSGVPSRFSGSGSGTDFTLTISSLQPEDFATYYCQQSYSIPITFGQGTQLEIK
B14: HCB2-1d (antibody, V domains shown)
VH: B13 VH
VL: DVQMTQSPSSLSASVGDRVSITCKASQDVSIAVAWYQQKPGKAPKLLIYSASYRYTGVPDRFSGSGSGTDFTLTISSLQPEDFAVYYCQQHYITPLTFGAGTKLEIK
B15: HCB2-2 (antibody, V domains shown)
VH: QVQLVQSGAEVKKPGASVKVSCKASGYIFNTYGISWVRQAPGQGLEWMGWTNVYNSNTDSGHKFQGRVTMTTDTSTDTAYMELRSLRSDDTAVYYCARDPGSAIFDMWGQGTMVTVSS
VL: B13 VL with A1D, I2V, Q103R
notes: also called HCB2-2_HC; HCB2-2_LC
B16: HCB2-4 (antibody, V domains shown)
VH: QVELQESGPGLVKPSETLSLTCTVSGDAIKDKYWSWVRQPPGKGLEWIGYISNSGSTNYNPSLKSRVSLSVDTSKNQFSLKQTSVTAADTATYYCARGSGYTAFDIWGQGTMVTVSS
VL: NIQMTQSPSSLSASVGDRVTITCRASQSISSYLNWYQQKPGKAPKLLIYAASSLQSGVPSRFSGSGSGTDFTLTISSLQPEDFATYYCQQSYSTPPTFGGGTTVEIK
notes: also called HCB2-4_HC; HCB2-4_LC
B17: HCB2-13 (antibody, V domains shown)
VH: QVQLVESGGGLVQPGGSLRLSCAASGFTLSSYAMSWVRQAPGEGLEWVSSINSGGSTYYAGSVRGRFTISRDNSKNTLYLQMNSLRAEDTAVYYCAKAKSYSSDLDHWGQGTTVTVSS
VL: DVVMTQSPSSLSVSAGEKVTMSCKSSQSLLNSGNQKTYLAWYQQKPGQPPKLLIYGASTRESGVPDRFTGSGSGTDFTLTISSVQAEDLAVYYCQNDHSYPFTFGSGTKVEIKR
notes: also called HCB2-13_HC; HCB2-13_LC
B18: B2-1 (antibody, V domains shown)
VH: EVQLVQSGAEVKKPGSSVKVSCKASGGTFSSYAISWVRQAPGQGLEWMGGIIPIFGTANYAQKFQGRVTITADKSTSTAYMELSSLRSEDTAVYYCARGNQGDTAFDIWGQGTTVIVSS
VL: B4 VL with A2S, V3A, V4L, T5N, V18I, S19T, F32Y, T97S, A98T
notes: also called B2-1_HC; B2-1_LC

Target: T1, LILRB2-His antigen (UniProt Q8N423 22-460, limits assumed)
T1 construct: Coated on ELISA plates; also used for phage panning; also called LILRB2 antigen; not shown: His tag
Assay: indirect ELISA, coated LILRB2-His
Description: ELISA binding EC of LILRB2 antibodies. The ELISA binding EC₅₀ of these 24 antibodies were measured by indirect ELISA. […] After incubation, HRP-conjugated goat anti-human Fc secondary antibody was incubated with the plates. The TMB substrate was added for color development and measurement of absorbance at 450 nm.

Binder	EC50 [nM]
B1	3.79
B2	1.97
B3	0.787
B4	5.15
B5	379
B6	1.6
B7	1.76
B8	1.02
B9	2.44
B10	0.608
B11	0.348
B12	1.19

Target: T2, full extracellular domain (ECD) of LILRB2 fused to Fc fragment of mouse IgG2a (human; mouse, UniProt Q8N423 22-460)
T2 construct: extracellular domain; also called B2-ECD; wildtype B2-ECD; not shown: Fc fragment of mouse IgG2a
Assay: ELISA, coated human LILRB2 ECD-mIgG2a Fc [panel A]
Excerpt: FIGS. 19A-B. ELISA binding measurement of antibodies to human and non-human primate (cynomolgus monkey, cyno) LILRB2 recombinantly produced in HEK293 cells. (FIG. 19A) ELISA binding to human LILRB2. (FIG. 19B) ELISA binding to cyno-LILRB2. The fusion proteins of the extracellular domain (ECD) of human LILRB2 or NHP-LILRB2 with Fe of mouse IgG2a were used to coat ELISA plates and antibodies were titrated in different concentrations as indicated in the graph.

Binder	binding result
B13	binds
B14	binds
B15	binds
B16	binds
B17	binds

Target: T3, LILRB2 chimeric receptor on LILRB2 reporter cells (extracellular domain of LILRB2 fused with … (UniProt Q8N423 22-460))
T3 construct: extracellular domain;domain: transmembrane/intracellular domains; associates with DAP12; also called LILRB2-expressing reporter cells
Assay: flow cytometry, LILRB2 reporter cells
Excerpt: FIGS. 1A-C. Screening specific monoclonal antibodies for LILRB2. […] Binding of monoclonal antibodies was screened using flow cytometer on LILRB2 reporter cells. Bound antibodies were detected with Allophycocyanin (APC)-labeled goat anti-human IgG secondary antibody. (FIG. 1B) Quantification of binding ability of monoclonal antibodies to LILRB2 reporter cells.
Screening specific monoclonal antibodies for LILRB2. The inventors employed a stable reporter cell system to detect the binding ability of selected monoclonal antibodies to LILRB2. In this chimeric receptor reporter system, the extracellular domain (ECD) of LILRB2 is fused with transmembrane/intracellular domains of PILRb that associates with the adaptor protein DAP12 containing an immunoreceptor tyrosine-based activation motif. 27 monoclonal antibodies were screened. The LILRB2 reporter cells were incubated with selected monoclonal antibody, then labeled with (APC) goat anti-human IgG secondary antibody. […] The inventors generated LILRBAs and LILRBs reporters stably transduced with each receptor's extracellular domain (ECD).

Binder	% of cells anti-hIgG APC+ [%]
B1	0.28
B2	3.74
B3	0.58
B18	1.69
B4	1.23
B5	1.1
B6	0.14
B7	0.7
B8	0.12
B9	0.47
B10	0.09
B11	0.19
B12	4.92
